The target in data set [1] is T1, She3p (Saccharomyces cerevisiae, UniProt P38272 1-425).
T1 sequence: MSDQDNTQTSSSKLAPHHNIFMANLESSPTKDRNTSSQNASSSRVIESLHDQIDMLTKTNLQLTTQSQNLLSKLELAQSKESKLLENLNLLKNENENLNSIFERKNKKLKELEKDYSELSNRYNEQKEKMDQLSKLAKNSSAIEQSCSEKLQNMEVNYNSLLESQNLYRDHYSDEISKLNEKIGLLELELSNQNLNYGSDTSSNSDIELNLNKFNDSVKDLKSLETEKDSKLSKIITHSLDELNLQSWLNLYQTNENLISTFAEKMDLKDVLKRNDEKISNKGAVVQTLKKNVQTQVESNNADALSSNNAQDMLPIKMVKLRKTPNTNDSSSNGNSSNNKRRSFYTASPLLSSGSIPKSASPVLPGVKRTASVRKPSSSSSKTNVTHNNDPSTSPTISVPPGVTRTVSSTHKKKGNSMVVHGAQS
Nature of the data set: EMSA; subtle shift at 25 nM She3p; EMSA: 20 mM HEPES pH 7.8, 200 mM NaCl, 2 mM MgCl2, 2 mM DTT, 4% glycerol, 30 or 100 ug/ml yeast tRNA, 5 nM RNA, 20 C; filter binding: 20 mM HEPES pH 7.4-7.5 (7.9 with She3p), 150 mM NaCl, 2 mM MgCl2, 2 mM DTT, 30 ug/ml yeast tRNA, 0.5 nM RNA; pull-down: HNMD buffer, 4 C. As to conditions: protein: recombinant; tags: C-terminal His6; label: 32P; stem-loop. In general terms: In EMSA bound probe runs differently from free probe, usually more slowly.

The target of data set [2] is T2, She2p;She3p (Saccharomyces cerevisiae;Saccharomyces …, UniProt P36068;P38272 1-246;1-425, |). As to the kind of experiment: EMSA; She3p constant 25 nM, She2p varied; EMSA: 20 mM HEPES pH 7.8, 200 mM NaCl, 2 mM MgCl2, 2 mM DTT, 4% glycerol, 30 or 100 ug/ml yeast tRNA, 5 nM RNA, 20 C; filter binding: 20 mM HEPES pH 7.4-7.5 (7.9 with She3p), 150 mM NaCl, 2 mM MgCl2, 2 mM DTT, 30 ug/ml yeast tRNA, 0.5 nM RNA; pull-down: HNMD buffer, 4 C. The note with it: protein: recombinant;recombinant; tags: GST tag (PreScission-cleaved);C-terminal His6; chain copies: 4;2; label: 32P; stem-loop.
Target sequence in this assay (P36068 whole entry, one chain of several): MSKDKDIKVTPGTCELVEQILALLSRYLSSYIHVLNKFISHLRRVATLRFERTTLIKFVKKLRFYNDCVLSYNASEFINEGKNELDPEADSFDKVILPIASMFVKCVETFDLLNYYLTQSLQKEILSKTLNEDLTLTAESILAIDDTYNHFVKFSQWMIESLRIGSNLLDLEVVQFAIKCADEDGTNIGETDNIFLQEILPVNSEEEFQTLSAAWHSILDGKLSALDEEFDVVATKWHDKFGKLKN

Data set [3] addresses T1, She3p. As to the kind of experiment: UV cross-linking; EMSA: 20 mM HEPES pH 7.8, 200 mM NaCl, 2 mM MgCl2, 2 mM DTT, 4% glycerol, 30 or 100 ug/ml yeast tRNA, 5 nM RNA, 20 C; filter binding: 20 mM HEPES pH 7.4-7.5 (7.9 with She3p), 150 mM NaCl, 2 mM MgCl2, 2 mM DTT, 30 ug/ml yeast tRNA, 0.5 nM RNA; pull-down: HNMD buffer, 4 C. The note with it: protein: recombinant; tags: C-terminal His6; label: 32P; stem-loop.

Data set [4] addresses T3, She2p (Saccharomyces cerevisiae, UniProt P36068 1-246). The data set is described as above. As to conditions: protein: recombinant; tags: GST tag (PreScission-cleaved); chain copies: 4; label: 32P; stem-loop.
Data set [5] addresses T2, She2p;She3p. As to the kind of experiment: EMSA; She3p constant 25 nM; Kd stated as in similar range; EMSA: 20 mM HEPES pH 7.8, 200 mM NaCl, 2 mM MgCl2, 2 mM DTT, 4% glycerol, 30 or 100 ug/ml yeast tRNA, 5 nM RNA, 20 C; filter binding: 20 mM HEPES pH 7.4-7.5 (7.9 with She3p), 150 mM NaCl, 2 mM MgCl2, 2 mM DTT, 30 ug/ml yeast tRNA, 0.5 nM RNA; pull-down: HNMD buffer, 4 C. The note with it: protein: recombinant;recombinant; tags: GST tag (PreScission-cleaved);C-terminal His6; chain copies: 4;2; label: 32P; stem-loop.
Target sequence in this assay (P36068 whole entry, chain 1 of 2, one chain of several): as the sequence (P36068 whole entry, one chain of several) above

For data set [6], the target named is Puf6p (Saccharomyces cerevisiae, UniProt Q04373 2-656). Nature of the data set: EMSA; EMSA: 20 mM HEPES pH 7.8, 200 mM NaCl, 2 mM MgCl2, 2 mM DTT, 4% glycerol, 30 or 100 ug/ml yeast tRNA, 5 nM RNA, 20 C; filter binding: 20 mM HEPES pH 7.4-7.5 (7.9 with She3p), 150 mM NaCl, 2 mM MgCl2, 2 mM DTT, 30 ug/ml yeast tRNA, 0.5 nM RNA; pull-down: HNMD buffer, 4 C. The note with it: protein: recombinant, tags: GST tag (cleaved for EMSA; retained in GST pull-downs), label: 32P.

For data set [7], the target named is T3, She2p. As to the kind of experiment: filter binding; range over three control RNAs; EMSA: 20 mM HEPES pH 7.8, 200 mM NaCl, 2 mM MgCl2, 2 mM DTT, 4% glycerol, 30 or 100 ug/ml yeast tRNA, 5 nM RNA, 20 C; filter binding: 20 mM HEPES pH 7.4-7.5 (7.9 with She3p), 150 mM NaCl, 2 mM MgCl2, 2 mM DTT, 30 ug/ml yeast tRNA, 0.5 nM RNA; pull-down: HNMD buffer, 4 C. The note with it: protein: recombinant; tags: GST tag (PreScission-cleaved); chain copies: 4; label: 32P; hairpin.

Data set [8] has as its target T1, She3p. Nature of the data set: EMSA; EMSA: 20 mM HEPES pH 7.8, 200 mM NaCl, 2 mM MgCl2, 2 mM DTT, 4% glycerol, 30 or 100 ug/ml yeast tRNA, 5 nM RNA, 20 C; filter binding: 20 mM HEPES pH 7.4-7.5 (7.9 with She3p), 150 mM NaCl, 2 mM MgCl2, 2 mM DTT, 30 ug/ml yeast tRNA, 0.5 nM RNA; pull-down: HNMD buffer, 4 C. As to conditions: protein: recombinant; tags: C-terminal His6; label: 32P; stem-loop.

Data set [9] concerns the target She2p (ΔC);She3p (Saccharomyces cerevisiae;Saccharomyces …, UniProt P36068;P38272 1-240;1-425, |). Nature of the data set: size-exclusion chromatography; EMSA: 20 mM HEPES pH 7.8, 200 mM NaCl, 2 mM MgCl2, 2 mM DTT, 4% glycerol, 30 or 100 ug/ml yeast tRNA, 5 nM RNA, 20 C; filter binding: 20 mM HEPES pH 7.4-7.5 (7.9 with She3p), 150 mM NaCl, 2 mM MgCl2, 2 mM DTT, 30 ug/ml yeast tRNA, 0.5 nM RNA; pull-down: HNMD buffer, 4 C. The note with it: protein: recombinant;recombinant; tags: GST tag (PreScission-cleaved);C-terminal His6; stem-loop. For orientation: Size exclusion chromatography separates by hydrodynamic size, large species first.

Data set [10] concerns the target Puf6p;She2p (Saccharomyces cerevisiae;Saccharomyces …, UniProt Q04373;P36068 2-656;1-246, |). Nature of the data set: pull-down; GST-Puf6p immobilized; EMSA: 20 mM HEPES pH 7.8, 200 mM NaCl, 2 mM MgCl2, 2 mM DTT, 4% glycerol, 30 or 100 ug/ml yeast tRNA, 5 nM RNA, 20 C; filter binding: 20 mM HEPES pH 7.4-7.5 (7.9 with She3p), 150 mM NaCl, 2 mM MgCl2, 2 mM DTT, 30 ug/ml yeast tRNA, 0.5 nM RNA; pull-down: HNMD buffer, 4 C. As to conditions: protein: recombinant;recombinant; tags: GST tag (cleaved for EMSA; retained in GST pull-downs);GST tag (PreScission-cleaved); copies: 1;4; stem-loop.

Data set [11] addresses T2, She2p;She3p. Nature of the data set: size-exclusion chromatography; pull-down; EMSA: 20 mM HEPES pH 7.8, 200 mM NaCl, 2 mM MgCl2, 2 mM DTT, 4% glycerol, 30 or 100 ug/ml yeast tRNA, 5 nM RNA, 20 C; filter binding: 20 mM HEPES pH 7.4-7.5 (7.9 with She3p), 150 mM NaCl, 2 mM MgCl2, 2 mM DTT, 30 ug/ml yeast tRNA, 0.5 nM RNA; pull-down: HNMD buffer, 4 C. The note with it: protein: recombinant;recombinant; tags: GST tag (PreScission-cleaved);C-terminal His6; chain copies: 4;2; stem-loop.
Target sequence in this assay (P36068 whole entry, one chain of several): as above

For data set [12], the target named is Puf6p;She2p;She3p (Saccharomyces cerevisiae;Saccharomyces …, UniProt Q04373;P36068;P38272 2-656;1-246;1-425, ||). Nature of the data set: pull-down; His-She3p or GST-Puf6p immobilized; EMSA: 20 mM HEPES pH 7.8, 200 mM NaCl, 2 mM MgCl2, 2 mM DTT, 4% glycerol, 30 or 100 ug/ml yeast tRNA, 5 nM RNA, 20 C; filter binding: 20 mM HEPES pH 7.4-7.5 (7.9 with She3p), 150 mM NaCl, 2 mM MgCl2, 2 mM DTT, 30 ug/ml yeast tRNA, 0.5 nM RNA; pull-down: HNMD buffer, 4 C. The note with it: protein: recombinant;recombinant;recombinant; tags: GST tag (cleaved for EMSA; retained in GST pull-downs);GST tag (PreScission-cleaved);C-terminal His6; stem-loop.

Data set [13] concerns the target She2p (ΔhE) (Saccharomyces cerevisiae, UniProt P36068 1-246, del174-183). Nature of the data set: size-exclusion chromatography; binary co-complex; EMSA: 20 mM HEPES pH 7.8, 200 mM NaCl, 2 mM MgCl2, 2 mM DTT, 4% glycerol, 30 or 100 ug/ml yeast tRNA, 5 nM RNA, 20 C; filter binding: 20 mM HEPES pH 7.4-7.5 (7.9 with She3p), 150 mM NaCl, 2 mM MgCl2, 2 mM DTT, 30 ug/ml yeast tRNA, 0.5 nM RNA; pull-down: HNMD buffer, 4 C. The note with it: protein: recombinant; tags: GST tag (PreScission-cleaved); chain copies: 2; stem-loop.

Consider ten molecules from PMC3079584, “A Cytoplasmic Complex Mediates Specific mRNA Recognition and Localization in Yeast”.

T3 sequence (P36068 whole entry): as the sequence (P36068 whole entry, one chain of several) above
Sequence of Puf6p (Q04373 2-656): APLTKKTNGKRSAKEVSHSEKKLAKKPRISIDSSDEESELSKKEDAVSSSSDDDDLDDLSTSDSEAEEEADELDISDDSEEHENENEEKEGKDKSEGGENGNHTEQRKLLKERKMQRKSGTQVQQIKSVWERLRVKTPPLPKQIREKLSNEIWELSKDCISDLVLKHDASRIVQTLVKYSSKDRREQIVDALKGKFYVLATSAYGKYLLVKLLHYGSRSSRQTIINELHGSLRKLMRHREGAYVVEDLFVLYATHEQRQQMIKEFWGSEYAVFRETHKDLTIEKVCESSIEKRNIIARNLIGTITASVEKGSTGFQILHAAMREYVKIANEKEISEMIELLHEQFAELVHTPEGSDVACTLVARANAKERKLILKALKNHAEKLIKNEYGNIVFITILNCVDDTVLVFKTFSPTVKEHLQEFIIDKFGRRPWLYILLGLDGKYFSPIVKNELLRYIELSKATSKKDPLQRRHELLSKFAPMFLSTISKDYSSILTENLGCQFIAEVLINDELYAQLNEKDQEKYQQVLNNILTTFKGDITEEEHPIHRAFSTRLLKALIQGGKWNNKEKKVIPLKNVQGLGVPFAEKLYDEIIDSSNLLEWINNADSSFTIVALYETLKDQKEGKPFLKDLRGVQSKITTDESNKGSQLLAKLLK
Sequence of She2p (ΔC);She3p (P36068 1-240, stated change not applied, one chain of several): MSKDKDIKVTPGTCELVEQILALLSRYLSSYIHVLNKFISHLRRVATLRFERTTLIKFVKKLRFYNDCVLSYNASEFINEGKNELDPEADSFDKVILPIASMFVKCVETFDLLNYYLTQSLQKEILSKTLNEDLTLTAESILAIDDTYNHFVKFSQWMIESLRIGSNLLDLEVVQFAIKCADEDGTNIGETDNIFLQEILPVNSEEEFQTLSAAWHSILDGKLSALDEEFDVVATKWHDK
Sequence of She2p (ΔhE) (P36068 other isoform, or with tags, fused parts or gaps del174-183 | mutant): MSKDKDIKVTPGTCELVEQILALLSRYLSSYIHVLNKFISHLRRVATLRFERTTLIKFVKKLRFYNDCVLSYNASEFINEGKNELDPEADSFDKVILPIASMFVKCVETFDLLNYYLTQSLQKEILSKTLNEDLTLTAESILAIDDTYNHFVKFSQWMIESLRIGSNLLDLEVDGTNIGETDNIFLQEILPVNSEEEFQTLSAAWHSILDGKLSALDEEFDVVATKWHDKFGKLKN
Sequence of Puf6p;She2p (Q04373 2-656, chain 1 of 2): as the sequence (Q04373 2-656) above
Sequence of Puf6p;She2p (P36068 whole entry, chain 2 of 2): as the sequence (P36068 whole entry, one chain of several) above
Sequence of Puf6p;She2p;She3p (Q04373 2-656, chain 1 of 2): as the sequence (Q04373 2-656) above
Sequence of Puf6p;She2p;She3p (P36068 whole entry, chain 2 of 2): as the sequence (P36068 whole entry, one chain of several) above

B1: ASH1 E2A (structured_RNA)
RNA: UUGCGAAUAGAGACAUUCUAUCGAACAAUUCCAAAUCUAAUGUAAGGAAACCAUCUAAGAACAAAAUCUCAAAGCAA
As a reminder, the Kd is the free concentration of one partner at which half of the binding sites on the other are occupied at equilibrium, for simple one-to-one binding. Take B1: the binding result in data set [1] is “binds”. Also, the Kd in data set [2] was about 25 nM.

B2: ASH1 E3-51 (structured_RNA)
RNA: AUGGAUAACUGAAUCUCUUUCAACUAAUAAGAGACAUUAUCACGAAACAAU
As to B2, the binding result in data set [3] and in data set [4] was “binds” in each case. Also, the Kd in data set [5] is about 25 nM.

B3: Poly(A)60 (ssRNA)
RNA: AAAAAAAAAAAAAAAAAAAAAAAAAAAAAAAAAAAAAAAAAAAAAAAAAAAAAAAAAAAA
B3: the binding result in data set [6] was “binds”.

B4: U1 snRNA hairpin II (structured_RNA)
RNA: UUAUCCAUUGCACUCCGGAUGU
As for B4, the Kd in data set [7] was about 1330 nM.

B5: HIV-1 TAR (16 bases) (structured_RNA)
RNA: CGAGCCUGGGAGCUCG
As for B5, the dissociation constant Kd in data set [7] is about 1330 nM.

B6: HIV-1 TAR (57 bases) (structured_RNA)
RNA: GGUCUCUCUGGUUAGACCAGAUCUGAGCCUGGGAGCUCUCUGGCUAACUAGGGAACC
As for B6, the Kd in [7] is about 1330 nM.

B7: EAR1 zip code (structured_RNA)
RNA: CGAAGAUGAAAAUGAUCACGAGAGAGAUCCCGAACAAUUUUCAGAAUUUG
As to B7, the binding result in data set [8] and in [6] (stem-loop) was “binds” throughout. In addition, the equilibrium dissociation constant (Kd) in data set [2] is about 25 nM.

B8: ASH1 E1 (structured_RNA)
RNA: AAGACUAUGUUAAAAUACGCGAAGAAGUGGCUCAUUUCAAGCCAUUAAGUAUACCCAACUUAACUAAUAAUCAAAAUAA
As to B8, in data set [1], the binding result is recorded as “binds”. Besides, the Kd in [2] is about 25 nM.

B9: ASH1 E2B (domain 1) (structured_RNA)
RNA: AUCUUCAUCUCCAUCUCCCUCCACACCGACGAAAAGUGGCAAGAUGAGAUCAAGAUCA
For B9, in data set [2], the Kd is about 25 nM.

B10: E3-118-tRNA (structured_RNA)
RNA: GGCUACGUAGCUCAGUUGGUUAGAGCAGCGGCCGGAGACAGUAGAGAAUUGAUACAUGGAUAACUGAAUCUCUUUCAACUAAUAAGAGACAUUAUCACGAAACAAUUGUACAUUUCUCUCCUUGUCUGUGCUAAAUAAACUACAAAUAAAAACCGCGGGUCACAGGUUCGAAUCCCGUCGUAGCCACCA
On to B10, for which the binding result in data set [9], in [10], in data set [11], in data set [12] and in data set [13] was “binds” each time.
